In the Human Domainome abundance scans (Beltran et al. 2025):
± gives the uncertainty stated by the source.

B1: DnaJ homolog subfamily C member 5, residues 16 to 77; numbered along this chain, Q9H3Z4 (parent)
chain: LYHVLGLDKNATSDDIKKSYRKLALKYHPDKNPDNPEAADKFKEINNAHAILTDATKRNIYD

Variants of: B1
Assay: abundance fitness (aPCA) (normalised: wild type 0, dead -1); higher = more abundant; growth selection in yeast, the domain comes from the species named
Details: Homo sapiens

Abundance fitness of substitutions, site by site:
D40: W 0.046 ± 0.084; E -0.171 ± 0.11; L 0.212 ± 0.085; Q -0.03 ± 0.22; I 0.224 ± 0.13; C -0.012 ± 0.095; A 0.137 ± 0.086; Y -0.05 ± 0.16; N -0.271 ± 0.47; F 0.029 ± 0.18; M 0.255 ± 0.11; K 0.385 ± 0.11; V 0.194 ± 0.082; H 0.156 ± 0.15; P -0.258 ± 0.11; T 0.054 ± 0.085; R 0.271 ± 0.071
E37: F -0.01 ± 0.09; R -0.117 ± 0.05; H 0.004 ± 0.18; D -0.238 ± 0.13; Q 0.079 ± 0.081; Y -0.226 ± 0.11; S 0.036 ± 0.069; C -0.206 ± 0.074; G -0.063 ± 0.059; W -0.171 ± 0.068; P -0.441 ± 0.12; T -0.011 ± 0.071; N 0.042 ± 0.17; M -0.217 ± 0.13; I -0.406 ± 0.17; V 0.041 ± 0.054; L -0.172 ± 0.062
A50: S 0.059 ± 0.078; I -0.334 ± 0.13; W -0.748 ± 0.13; T -0.072 ± 0.1; L -0.386 ± 0.083; C -0.688 ± 0.21; E -0.562 ± 0.12; V -0.19 ± 0.065; M -0.087 ± 0.089; Y -0.604 ± 0.17; K -0.091 ± 0.11; H -0.237 ± 0.14; Q -0.294 ± 0.11; P -0.773 ± 0.1; F -0.61 ± 0.15; G -0.198 ± 0.071; R -0.009 ± 0.059
D34: Q -0.206 ± 0.089; V -0.591 ± 0.056; I -0.586 ± 0.17; P -0.623 ± 0.1; T -0.257 ± 0.096; Y -0.355 ± 0.095; W -0.944 ± 0.12; G 0.068 ± 0.073; H -0.411 ± 0.2; L -0.641 ± 0.07; M -0.694 ± 0.12; N -0.299 ± 0.086; K -0.006 ± 0.1; R -0.251 ± 0.074
N47: R -0.142 ± 0.28; S -0.259 ± 0.49
I51: C -0.142 ± 0.1; M -0.131 ± 0.1; N -0.304 ± 0.13; P -0.166 ± 0.087; Q 0.036 ± 0.11; E -0.301 ± 0.16; Y -0.353 ± 0.25; R -0.318 ± 0.064; L -0.149 ± 0.061; A -0.146 ± 0.11; W -0.712 ± 0.14; V 0.106 ± 0.085; T -0.08 ± 0.084; G -0.257 ± 0.094; D 0.123 ± 0.2; F -0.326 ± 0.23; S -0.262 ± 0.1
H49: D -0.4 ± 0.13; K -0.032 ± 0.096; L -0.291 ± 0.065; E -0.362 ± 0.14; W -0.153 ± 0.095; N -0.062 ± 0.17; I -0.639 ± 0.13; Y -0.251 ± 0.13; V -0.091 ± 0.088; F 0.149 ± 0.085; M -0.002 ± 0.11; G -0.052 ± 0.066; P -0.423 ± 0.11; A 0.009 ± 0.099; S -0.279 ± 0.088; R 0.029 ± 0.078; C -0.405 ± 0.15; T -0.26 ± 0.098; Q -0.161 ± 0.15
K41: T -0.197 ± 0.11; G -0.433 ± 0.064; Y -0.254 ± 0.21; R -0.119 ± 0.073; E -0.311 ± 0.08; I -0.211 ± 0.14; N -0.434 ± 0.2; Q -0.333 ± 0.12; F -0.447 ± 0.17; C -0.598 ± 0.21; S -0.223 ± 0.12; D -0.493 ± 0.14; V -0.278 ± 0.063; A -0.222 ± 0.064; P -1.1 ± 0.15; W -0.4 ± 0.095
A39: M -0.126 ± 0.14; L 0.014 ± 0.083; Q -0.227 ± 0.11; S -0.176 ± 0.086; P -0.301 ± 0.19; F -0.56 ± 0.2; Y 0.082 ± 0.14; V -0.01 ± 0.082; E -0.14 ± 0.084; C 0.01 ± 0.11; G -0.032 ± 0.062; N 0.003 ± 0.13; K 0.095 ± 0.092; R -0.021 ± 0.068; I 0.064 ± 0.16; D 0.033 ± 0.13; T -0.427 ± 0.21
L52: I -0.592 ± 0.23; S -0.493 ± 0.098; K -0.419 ± 0.098; D -0.381 ± 0.16; E -0.293 ± 0.12; C -0.963 ± 0.26; P -0.292 ± 0.12; H -0.767 ± 0.26; Q -0.572 ± 0.1; N -1.02 ± 0.42; F -0.295 ± 0.39; M -0.395 ± 0.11; G -0.555 ± 0.094; A -0.303 ± 0.12; W -0.454 ± 0.11; V -0.524 ± 0.085; T -0.446 ± 0.081; R -0.479 ± 0.079
K43: A 0.299 ± 0.17; R -0.263 ± 0.15; S -0.043 ± 0.19; D 0.015 ± 0.3; G -0.116 ± 0.11; W -0.276 ± 0.15; H 0.519 ± 0.48; Q 0.362 ± 0.17; P -1.02 ± 0.34; Y 0.364 ± 0.29; M 0.382 ± 0.25; N -0.23 ± 0.3; T 0.051 ± 0.2; E -0.34 ± 0.18; F 0.349 ± 0.17
D54: E -0.278 ± 0.11; N 0.044 ± 0.13; T -0.512 ± 0.16; L -0.632 ± 0.1; C -0.499 ± 0.2; R -0.382 ± 0.095; A -0.214 ± 0.14; V -0.613 ± 0.11; G -0.304 ± 0.088; F -1.01 ± 0.21; K -0.056 ± 0.19; M -0.634 ± 0.14; W -0.907 ± 0.21; Q -0.666 ± 0.22; Y -1.01 ± 0.22
N46: M -0.113 ± 0.1; W -0.778 ± 0.13; V 0.182 ± 0.085; E 0.093 ± 0.12; L -0.169 ± 0.097; Y -0.312 ± 0.45; T 0.256 ± 0.092; H -0.081 ± 0.11; P -0.653 ± 0.13; K -0.058 ± 0.14; G -0.082 ± 0.084; D -0.578 ± 0.24; Q -0.035 ± 0.17; C 0.174 ± 0.2; R -0.017 ± 0.072; I -0.178 ± 0.16; F -0.065 ± 0.18; A 0.272 ± 0.12
A48: I -0.769 ± 0.14; F -1.72 ± 0.41; V -0.777 ± 0.099; W -1.58 ± 0.21; P -0.384 ± 0.16; M -1.06 ± 0.24; N -0.903 ± 0.14; D -0.16 ± 0.27; T -0.777 ± 0.16; H -0.477 ± 0.2; C -0.85 ± 0.16; Y -0.748 ± 0.31; Q -0.82 ± 0.18; E -0.387 ± 0.12; G -0.455 ± 0.095; S -0.277 ± 0.098
N35: F -0.309 ± 0.17; A -0.184 ± 0.082; M -0.431 ± 0.088; T -0.143 ± 0.086; W -0.317 ± 0.095; I -0.255 ± 0.14; E -0.235 ± 0.094; K -0.194 ± 0.11; S -0.041 ± 0.089; C -0.462 ± 0.19; R -0.282 ± 0.082; Q -0.265 ± 0.1; V -0.255 ± 0.061; G -0.281 ± 0.072; H -0.197 ± 0.094
E44: V -0.264 ± 0.073; L -0.504 ± 0.063; K -0.376 ± 0.096; C -0.524 ± 0.12; I -0.73 ± 0.19; N -0.196 ± 0.12; A -0.135 ± 0.086; Y -0.742 ± 0.2; G -0.527 ± 0.098; D -0.154 ± 0.1; R -0.435 ± 0.061; T -0.518 ± 0.096; W -0.731 ± 0.14; S -0.3 ± 0.067; Q -0.301 ± 0.13; P -0.626 ± 0.1; M -0.097 ± 0.11; F -0.744 ± 0.12
F42: H -0.421 ± 0.17; Q -0.233 ± 0.078; E -0.192 ± 0.11; C -0.243 ± 0.11; Y -0.017 ± 0.18; K -0.188 ± 0.12; L 0.202 ± 0.061; D -0.119 ± 0.1; G -0.278 ± 0.07; M 0.223 ± 0.1; V -0.197 ± 0.065; W -0.05 ± 0.073; A -0.28 ± 0.076; R -0.17 ± 0.059; S -0.219 ± 0.097; I -0.135 ± 0.05; P -0.41 ± 0.099; N -0.237 ± 0.096
A38: H -0.169 ± 0.13; E -0.193 ± 0.14; L -0.243 ± 0.069; S -0.088 ± 0.092; T -0.292 ± 0.11; Y -0.132 ± 0.14; Q -0.371 ± 0.12; N -0.296 ± 0.17; W -0.305 ± 0.073; I -0.043 ± 0.12; C -0.401 ± 0.16; R -0.279 ± 0.063; K -0.338 ± 0.12; F -0.194 ± 0.15; D -0.137 ± 0.099; M -0.13 ± 0.097; P -0.559 ± 0.14
I45: W -0.841 ± 0.089; G -0.253 ± 0.063; L -0.026 ± 0.063; P -0.425 ± 0.13; H -0.792 ± 0.15; K -0.263 ± 0.093; R -0.623 ± 0.068; Q -0.45 ± 0.091; E -0.203 ± 0.083; C -0.44 ± 0.11; D -0.311 ± 0.2; M -0.418 ± 0.084; Y -0.366 ± 0.14; S -0.47 ± 0.065; V 0.007 ± 0.065; T -0.216 ± 0.086; F -0.747 ± 0.13; N -0.381 ± 0.18; A -0.181 ± 0.076
A55: P -0.036 ± 0.14; D -0.514 ± 0.37; E -0.061 ± 0.061; M -0.258 ± 0.12; K -0.002 ± 0.18; F -0.334 ± 0.17; C -0.37 ± 0.18; H -0.287 ± 0.26; N -0.117 ± 0.15; L -0.26 ± 0.093; Q 0.028 ± 0.11; I -0.406 ± 0.39; G -0.151 ± 0.076
T53: L -0.032 ± 0.054; M -0.157 ± 0.074; N 0.101 ± 0.15; R -0.127 ± 0.057; P -0.678 ± 0.083; C -0.126 ± 0.14; I -0.286 ± 0.087; S -0.116 ± 0.074; K -0.011 ± 0.086; D -0.093 ± 0.13; W -0.579 ± 0.077; E -0.277 ± 0.076; F -0.491 ± 0.13; A -0.118 ± 0.072; Q -0.186 ± 0.083; G 0.07 ± 0.065
